{
  "source": "paper PMC3477016",
  "about": "“The intrinsic GTPase activity of the Gtr1 protein from Saccharomyces cerevisiae” (BMC Biochemistry, 2012)",
  "proteins": {"B1": {"name": "Gtr1 (Saccharomyces cerevisiae S288C) (protein)", "chain": "MSSNNRKKLLLMGRSGSGKSSMRSIIFSNYSAFDTRRLGATIDVEHSHLRFLGNMTLNLWDCGGQDVFMENYFTKQKDHIFQMVQVLIHVFDVESTEVLKDIEIFAKALKQLRKYSPDAKIFVLLHKMDLVQLDKREELFQIMMKNLSETSSEFGFPNLIGFPTSIWDESLYKAWSQIVCSLIPNMSNHQSNLKKFKEIMNALEIILFERTTFLVICSSNGENSNENHDSSDNNNVLLDPKRFEKISNIMKNFKQSCTKLKSGFKTLILNNNIYVSELSSNMVCFIVLKDMNIPQELVLENIKKAKEFFQ", "notes": "full-length, N-terminal His6 tag (pET28a+ named in acknowledgements), expressed in E. coli, Ni-NTA purified, 36 kDa, monomer (without Gtr2); printed PDB id is of the Gtr1-Gtr2 complex of others"}},
  "substrate": "Nc1nc2c(ncn2[C@@H]2O[C@H](COP(=O)(O)OP(=O)(O)OP(=O)(O)O)[C@@H](O)[C@H]2O)c(=O)[nH]1",
  "experiment": "radioactive GTPase assay, thin-layer chromatography, Lineweaver-Burk",
  "type": "biochemical, Saccharomyces cerevisiae",
  "settings": "pH 7.4, 37 °C, 5 mM MgCl2, 5 mM KCl, 25 mM HEPES, 100 mM sucrose, 60 min, labelled compound [α-32P]GTP 0.1-1.2 μM, no GAP, GEF or Gtr2",
  "data": [
    {"protein": "B1", "values": [
      {"measurement": "Km", "result": 1.0, "unit": "µM"},
      {"measurement": "kcat", "result": "6.7e-05", "unit": "s⁻¹"}
    ]}
  ]
}
